Experimental data as given in patent US7393670B2, “Tyrosyl-tRNA synthetase variants” (Japan Science and Technology Agency, priority 2001, dated 2008).
Numbering of substitutions follows the chain as printed.

B1: Wild-type: wild-type tyrosyl-tRNA synthetase of E. coli (SEQ ID NO: 1): position 37 Tyrosine, position 195 Glutamine (protein, listed as Escherichia coli)
chain: MASSNLIKQLQERGLVAQVTDEEALAERLAQGPIALYCGFDPTADSLHLGHLVPLLCLKRFQQAGHKPVALVGGATGLIGDPSFKAAERKLNTEETVQEWVDKIRKQVAPFLDFDCGENSAIAANNYDWFGNMNVLTFLRDIGKHFSVNQMINKEAVKQRLNREDQGISFTEFSYNLLQGYDFACLNKQYGVVLQIGGSDQWGNITSGIDLTRRLHQNQVFGLTVPLITKADGTKFGKTEGGAVWLDPKKTSPYKFYQFWINTADADVYRFLKFFTFMSIEEINALEEEDKNSGKAPRAQYVLAEQVTRLVHGEEGLQAAKRITECLFSGSLSALSEADFEQLAQDGVPMVEMEKGADLMQALVDSELQPSRGQARKTIASNAITINGEKQSDPEYFFKEEDRLFGRFTLLRRGKKNYCLICWK
B2: 37A: E. coli TyrRS variant: position 37 Alanine, position 195 Glutamine (protein, UniProt P0AGJ9 2-424, looked up, variant Y37A)
Tyrosine--tRNA ligase: ASSNLIKQLQERGLVAQVTDEEALAERLAQGPIALACGFDPTADSLHLGHLVPLLCLKRFQQAGHKPVALVGGATGLIGDPSFKAAERKLNTEETVQEWVDKIRKQVAPFLDFDCGENSAIAANNYDWFGNMNVLTFLRDIGKHFSVNQMINKEAVKQRLNREDQGISFTEFSYNLLQGYDFACLNKQYGVVLQIGGSDQWGNITSGIDLTRRLHQNQVFGLTVPLITKADGTKFGKTEGGAVWLDPKKTSPYKFYQFWINTADADVYRFLKFFTFMSIEEINALEEEDKNSGKAPRAQYVLAEQVTRLVHGEEGLQAAKRITECLFSGSLSALSEADFEQLAQDGVPMVEMEKGADLMQALVDSELQPSRGQARKTIASNAITINGEKQSDPEYFFKEEDRLFGRFTLLRRGKKNYCLICWK
B3: IN: E. coli TyrRS double variant: position 37 Isoleucine, position 195 Asparagine (protein, UniProt P0AGJ9 2-424, looked up, variant Y37I Q195N)
Tyrosine--tRNA ligase: B2 Tyrosine--tRNA ligase with A36I, Q194N
B4: LN: E. coli TyrRS double variant: position 37 Leucine, position 195 Asparagine (protein, UniProt P0AGJ9 2-424, looked up, variant Y37L Q195N)
Tyrosine--tRNA ligase: B2 Tyrosine--tRNA ligase with A36L, Q194N
B5: AA: E. coli TyrRS double variant: position 37 Alanine, position 195 Alanine (protein, UniProt P0AGJ9 2-424, looked up, variant Y37A Q195A)
Tyrosine--tRNA ligase: B2 Tyrosine--tRNA ligase with Q194A
B6: LA: E. coli TyrRS double variant: position 37 Leucine, position 195 Alanine (protein, UniProt P0AGJ9 2-424, looked up, variant Y37L Q195A)
Tyrosine--tRNA ligase: B2 Tyrosine--tRNA ligase with A36L, Q194A
B7: VN: E. coli TyrRS double variant: position 37 Valine, position 195 Asparagine (protein, UniProt P0AGJ9 2-424, looked up, variant Y37V Q195N)
Tyrosine--tRNA ligase: B2 Tyrosine--tRNA ligase with A36V, Q194N
B8: VS: E. coli TyrRS double variant: position 37 Valine, position 195 Serine (protein, UniProt P0AGJ9 2-424, looked up, variant Y37V Q195S)
Tyrosine--tRNA ligase: B2 Tyrosine--tRNA ligase with A36V, Q194S
B9: AC: E. coli TyrRS double variant: position 37 Alanine, position 195 Cysteine (protein, UniProt P0AGJ9 2-424, looked up, variant Y37A Q195C)
Tyrosine--tRNA ligase: B2 Tyrosine--tRNA ligase with Q194C
B10: VA: E. coli TyrRS double variant: position 37 Valine, position 195 Alanine (protein, UniProt P0AGJ9 2-424, looked up, variant Y37V Q195A)
Tyrosine--tRNA ligase: B2 Tyrosine--tRNA ligase with A36V, Q194A
B11: LC: E. coli TyrRS double variant: position 37 Leucine, position 195 Cysteine (protein, UniProt P0AGJ9 2-424, looked up, variant Y37L Q195C)
Tyrosine--tRNA ligase: B2 Tyrosine--tRNA ligase with A36L, Q194C
B12: IA: E. coli TyrRS double variant: position 37 Isoleucine, position 195 Alanine (protein, UniProt P0AGJ9 2-424, looked up, variant Y37I Q195A)
Tyrosine--tRNA ligase: B2 Tyrosine--tRNA ligase with A36I, Q194A
B13: AS: E. coli TyrRS double variant: position 37 Alanine, position 195 Serine (protein, UniProt P0AGJ9 2-424, looked up, variant Y37A Q195S)
Tyrosine--tRNA ligase: B2 Tyrosine--tRNA ligase with Q194S

Experiment: Aminoacylation reaction, simplified Lloyd's method, inorganic phosphate detected with Biomol green
Type: biochemical
Parameters: key: ***: the aminoacylation reaction was detected by a microplate reader in the reaction at enzyme concentrations of 50 nM; **: 500 nM; *: 5 μM; the activity is high in the order of *** > ** > * > —
Conditions: Table 2; 3-iodotyrosine 1 mM; 37° C. for 4 min
Experimental: (§1) In the first method, Lloyd's method (Nucleic Acids Research, 23:2886-2892, 1995) where inorganic phosphate produced by pyrophosphatase-drived hydrolysis of pyrophosphate which was one of the reaction products of the aminoacylation reactions was quantified was simplified, and the inorganic phosphate was detected using Biomol green (Funakoshi) to carry out the measurement of the aminoacylation reaction.
(§2) Amino acid concentrations were 200 μM and 1 mM for tyrosine and 3-iodotyrosine, respectively.
(§3) The method where the aminoacylation reaction is measured by quantifying inorganic phosphate produced by pyrophosphatase-drived hydrolysis of pyrophosphate which is one of reaction products of the aminoacylation has been described by Lloyd et al. (Nucleic Acids Research, 23:2886-2892, 1995). In one method of the invention, this method was simplified and the aminoacylation reaction was measured by the detection of inorganic phosphate using Biomol green (Funakoshi). Each enzyme obtained was incubated with 0.05 ml of the buffer B containing 1 mM ATP (Seikagaku Corporation), 30 μM purified crude tyrosyl-tRNA, and 100 μM tyrosine or 0.5 mM 3-iodotyrosine at 37° C. for one hour. To stop the reaction, 0.1 ml of Bio mol green was added. Absorbance of its supernatant was measured at 630 nm.

Question: With B1 as the molecule, how does the “Aminoacylation activity, 3-iodotyrosine” value read?
Answer: —

Question: Which “Aminoacylation activity, 3-iodotyrosine” value does the source give for B2 here?
Answer: ***

Same assay, conditions: Table 3; 3-iodotyrosine 1 mM; 37° C. for 4 min

Question: With B1 as the molecule, how does the “Aminoacylation activity, 3-iodotyrosine” value read?
Answer: —

Question: For B3, which “Aminoacylation activity, 3-iodotyrosine” value is on record?
Answer: —

Question: For B4, which “Aminoacylation activity, 3-iodotyrosine” value is on record?
Answer: —

Question: For B5, which “Aminoacylation activity, 3-iodotyrosine” value is on record?
Answer: —

Question: With B6 as the molecule, how does the “Aminoacylation activity, 3-iodotyrosine” value read?
Answer: —

Experiment: Aminoacylation activity by Lloyd's method (release of pyrophosphates)
Type: biochemical
Conditions: 3-iodotyrosine versus tyrosine, from Table 4
Experimental: In the second method, Lloyd's method (Nucleic Acids Research, 23:2886-2892, 1995) was carried out without alteration.
In the second method, the activity was assayed by Lloyd's method (Nucleic Acids Research, 23:2886-2892, 1995). Each enzyme obtained was incubated with 0.4 ml of the buffer B containing 1 mM ATP (Seikagaku Corporation), 100 μM purified crude tyrosyl-tRNA, 200 μM tyrosine or 3-iodotyrosine at 37° C. for 6 min. The aminoacylation activity was represented as concentrations of released phosphate per min.

Question: For B7, which “relative tyrosine analogue to tyrosine ratio” value is on record?
Answer: inferior to VC

Question: Which “relative tyrosine analogue to tyrosine ratio” value does the source give for B8 here?
Answer: inferior to VC

Question: For B9, which “relative tyrosine analogue to tyrosine ratio” value is on record?
Answer: inferior to VC

Same assay, conditions: at 37° C.; 200 μM 3-iodotyrosine

Question: Which “Initial velocity of release of pyrophosphates, 3-iodotyrosine” value (“Initial velocity … 3-iodotyrosine” for short) does the source give for B7 here?
Answer: 6.9 nM PPi/min/nM enzyme

Question: Which “Initial velocity … 3-iodotyrosine” value does the source give for B8 here?
Answer: 18 nM PPi/min/nM enzyme

Question: Which “Initial velocity … 3-iodotyrosine” value does the source give for B9 here?
Answer: 3.1 nM PPi/min/nM enzyme

Question: Which “Initial velocity … 3-iodotyrosine” value does the source give for B1 here?
Answer: <0.05 nM PPi/min/nM enzyme

Question: Which “Initial velocity … 3-iodotyrosine” value does the source give for B2 here?
Answer: 12 nM PPi/min/nM enzyme

Question: For B10, which “Initial velocity … 3-iodotyrosine” value is on record?
Answer: 6.6 nM PPi/min/nM enzyme

Same assay, conditions: at 37° C.; 200 μM tyrosine

Question: Which “Initial velocity of release of pyrophosphates, Tyrosine” value does the source give for B7 here?
Answer: 2.1 nM PPi/min/nM enzyme

Question: For B8, which “Initial velocity of release of pyrophosphates, Tyrosine” value is on record?
Answer: 19 nM PPi/min/nM enzyme

Question: Which “Initial velocity of release of pyrophosphates, Tyrosine” value does the source give for B9 here?
Answer: 1.0 nM PPi/min/nM enzyme

Question: For B1, which “Initial velocity of release of pyrophosphates, Tyrosine” value is on record?
Answer: 400 nM PPi/min/nM enzyme

Question: With B2 as the molecule, how does the “Initial velocity of release of pyrophosphates, Tyrosine” value read?
Answer: 51 nM PPi/min/nM enzyme

Question: For B10, which “Initial velocity of release of pyrophosphates, Tyrosine” value is on record?
Answer: 3.7 nM PPi/min/nM enzyme

Experiment: Aminoacylation reaction, simplified Lloyd's method, inorganic phosphate detected with Biomol green
Type: biochemical
Parameters: key: ***: the reaction could be detected strongly at 25 nM; **: strongly at 250 nM; *: weakly at 250 nM; the activity is high in the order of *** > ** > * > —
Conditions: Table 3; tyrosine 200 μM; 37° C. for 4 min
Experimental: as §1, §2
as §3, with “Each enzyme obtained was incubated with 0.05 ml of the buffer B containing 1 mM ATP (Seikagaku Corporation), 30 μM purified crude tyrosyl-tRNA, and 100 μM tyrosine or 0.5 mM 3-iodotyrosine at 37° C. for one hour.” left out

Question: Which “Aminoacylation activity, Tyrosine” value does the source give for B8 here?
Answer: **

Question: For B9, which “Aminoacylation activity, Tyrosine” value is on record?
Answer: *

Question: For B1, which “Aminoacylation activity, Tyrosine” value is on record?
Answer: ***

Question: For B11, which “Aminoacylation activity, Tyrosine” value is on record?
Answer: *

Question: With B4 as the molecule, how does the “Aminoacylation activity, Tyrosine” value read?
Answer: *

Question: Which “Aminoacylation activity, Tyrosine” value does the source give for B10 here?
Answer: *

Question: Which “Aminoacylation activity, Tyrosine” value does the source give for B12 here?
Answer: *

Question: For B6, which “Aminoacylation activity, Tyrosine” value is on record?
Answer: *

Question: For B13, which “Aminoacylation activity, Tyrosine” value is on record?
Answer: *

Experiment: as above
Type: biochemical
Parameters: key: ***: the aminoacylation reaction was detected by a microplate reader in the reaction at enzyme concentrations of 50 nM; **: 500 nM; *: 5 μM; the activity is high in the order of *** > ** > * > —
Conditions: Table 2; tyrosine 200 μM; 37° C. for 4 min
Experimental: as §1, §2
as §3, with “Each enzyme obtained was incubated with 0.05 ml of the buffer B containing 1 mM ATP (Seikagaku Corporation), 30 μM purified crude tyrosyl-tRNA, and 100 μM tyrosine or 0.5 mM 3-iodotyrosine at 37° C. for one hour.” left out

Question: With B1 as the molecule, how does the “Aminoacylation activity, Tyrosine” value read?
Answer: ***

Question: For B2, which “Aminoacylation activity, Tyrosine” value is on record?
Answer: ***

Same assay, conditions: Table 3; tyrosine 200 μM; 37° C. for 4 min

Question: For B7, which “Aminoacylation activity, Tyrosine” value is on record?
Answer: —

Question: With B3 as the molecule, how does the “Aminoacylation activity, Tyrosine” value read?
Answer: —

Question: Which “Aminoacylation activity, Tyrosine” value does the source give for B5 here?
Answer: —

Experiment: as above
Type: biochemical
Parameters: key: ***: the reaction could be detected strongly at 25 nM; **: strongly at 250 nM; *: weakly at 250 nM; the activity is high in the order of *** > ** > * > —
Conditions: Table 3; 3-iodotyrosine 1 mM; 37° C. for 4 min
Experimental: as §1, §2, §3

Question: For B7, which “Aminoacylation activity, 3-iodotyrosine” value is on record?
Answer: **

Question: With B8 as the molecule, how does the “Aminoacylation activity, 3-iodotyrosine” value read?
Answer: **

Question: For B9, which “Aminoacylation activity, 3-iodotyrosine” value is on record?
Answer: **

Question: With B11 as the molecule, how does the “Aminoacylation activity, 3-iodotyrosine” value read?
Answer: *

Question: For B10, which “Aminoacylation activity, 3-iodotyrosine” value is on record?
Answer: **

Question: For B12, which “Aminoacylation activity, 3-iodotyrosine” value is on record?
Answer: *

Question: With B13 as the molecule, how does the “Aminoacylation activity, 3-iodotyrosine” value read?
Answer: *
